Two substances from article PMC6800134 can be followed below.

In this experiment the target is GST-tagged Rb RxL mut (lacks all 5 RxL sequences in its unstructured regions) (human) (UniProt P06400).
UniProt P06400, sequence (P06400 whole entry): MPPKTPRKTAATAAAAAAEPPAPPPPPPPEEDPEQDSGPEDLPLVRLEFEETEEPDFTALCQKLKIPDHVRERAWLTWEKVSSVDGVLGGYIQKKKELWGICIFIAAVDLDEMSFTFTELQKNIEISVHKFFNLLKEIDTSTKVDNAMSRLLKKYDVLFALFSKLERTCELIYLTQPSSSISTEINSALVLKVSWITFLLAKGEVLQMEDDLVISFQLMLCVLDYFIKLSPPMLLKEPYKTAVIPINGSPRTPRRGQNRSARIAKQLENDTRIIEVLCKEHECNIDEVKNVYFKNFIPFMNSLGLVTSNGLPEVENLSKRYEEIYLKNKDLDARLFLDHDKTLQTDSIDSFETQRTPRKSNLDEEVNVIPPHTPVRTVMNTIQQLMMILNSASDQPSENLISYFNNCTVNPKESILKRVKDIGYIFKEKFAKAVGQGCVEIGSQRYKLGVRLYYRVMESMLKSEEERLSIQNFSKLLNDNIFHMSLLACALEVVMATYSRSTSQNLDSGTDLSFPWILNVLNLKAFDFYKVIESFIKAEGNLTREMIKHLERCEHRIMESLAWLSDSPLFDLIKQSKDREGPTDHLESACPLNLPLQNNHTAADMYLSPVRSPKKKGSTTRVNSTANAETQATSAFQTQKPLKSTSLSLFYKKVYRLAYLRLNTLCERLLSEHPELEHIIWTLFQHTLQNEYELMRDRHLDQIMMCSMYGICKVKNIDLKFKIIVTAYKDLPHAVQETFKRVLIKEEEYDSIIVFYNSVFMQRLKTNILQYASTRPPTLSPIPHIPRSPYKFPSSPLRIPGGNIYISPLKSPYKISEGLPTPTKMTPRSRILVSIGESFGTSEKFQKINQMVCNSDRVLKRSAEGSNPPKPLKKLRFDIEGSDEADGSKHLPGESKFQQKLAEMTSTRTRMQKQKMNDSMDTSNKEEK

As to “3X FLAG-tagged cyclin A-Cdk2 fusion complex (enzyme)”, the in vitro kinase assay: fold less phosphorylation than wild type Rb was determined as 2.9 fold.
Turning to “3X FLAG-tagged cyclin E1-Cdk2 fusion complex (enzyme)”, the in vitro kinase assay: fold less phosphorylation than wild type Rb turned out to be 2 fold.
